Assay results as given in patent publication US20120172293A1 (Takeda / Millennium, published 2012).
Non-standard residues stand in square brackets, D forms with d. No end group written: not given here. *: point of attachment. X10 = Tetrahydro‑2H‑pyran‑4‑yl‑carbamoyl, O=C(NC1CCOCC1)*; Phe(3-Me) = Cc1cccc(C[C@H](N)C(=O)O)c1; Phe(2-Me) = Cc1ccccc1C[C@H](N)C(=O)O; tBuAla = CC(C)(C)C[C@H](N)C(=O)O; 4Pal = N[C@@H](Cc1ccncc1)C(=O)O; Cha = N[C@@H](CC1CCCCC1)C(=O)O; 4Amb = NCc1ccc(C(=O)O)cc1; Abu = CC[C@H](N)C(=O)O; Aib = CC(C)(N)C(=O)O

T1: human Y2 receptor (human, UniProt P49146 1-381)
T1 sequence (looked up): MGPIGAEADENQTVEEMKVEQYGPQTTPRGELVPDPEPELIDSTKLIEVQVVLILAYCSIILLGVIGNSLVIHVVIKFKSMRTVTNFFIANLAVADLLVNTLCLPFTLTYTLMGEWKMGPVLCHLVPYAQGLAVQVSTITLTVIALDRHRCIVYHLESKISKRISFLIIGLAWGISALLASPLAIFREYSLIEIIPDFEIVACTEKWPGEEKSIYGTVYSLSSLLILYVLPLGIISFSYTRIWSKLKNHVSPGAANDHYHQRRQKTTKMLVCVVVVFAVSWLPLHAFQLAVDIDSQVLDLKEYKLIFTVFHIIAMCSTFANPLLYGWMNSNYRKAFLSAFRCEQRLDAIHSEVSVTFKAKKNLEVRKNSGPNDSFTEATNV


Key:
human Y2 receptor [1] = molecular target: T1, human Y2 receptor; assay: cell-based or functional assay
human Y2 receptor [2] = molecular target: T1, human Y2 receptor; assay: RBA: displacement of [125I]-PYY from hY2R/CHO membranes
Protocol: After incubation at room temperature for 60 minutes, the mixture was filtered through the cell harvester FilterMate (PerkinElmer) using UniFilter-96 GF/C treated with polyethylenimine (PEI) solution (20 mM Tris, 0.3% PEI, pH 7.4), and the filter was washed 3 times with a filtering buffer (50 mM Tris, 5 mM MgCl₂, 150 mM NaCl, 0.03% NaN₃, 0.05% CHAPS, pH 7.4). Thereafter, UniFilter-96 GF/C was dried in a mechanical drier for 1 hour, 15 μl of the liquid scintillator MicroScint O (PerkinElmer) was added to each well, and a measurement was taken using TopCount (PerkinElmer). The data obtained were analyzed using Prism to calculate the IC₅₀ value.

Binder	GBA EC50 Ratio ([35S]GTPγS binding) (human Y2 receptor [1])	IC50 Ratio (human Y2 receptor [2])
Ac-R[dY]AS[dP]R[4Pal][Cha][Aib]NK[Aib]TRQR[Phe(2-Me)]-NH2 (SMILES CC(=O)N[C@@H](CCCNC(=N)N)C(=O)N[C@H](Cc1ccc(O)cc1)C(=O)N[C@@H](C)C(=O)N[C@@H](CO)C(=O)N1CCC[C@@H]1C(=O)N[C@@H](CCCNC(=N)N)C(=O)N[C@@H](Cc1ccncc1)C(=O)N[C@@H](CC1CCCCC1)C(=O)NC(C)(C)C(=O)N[C@@H](CC(N)=O)C(=O)N[C@@H](CCCCN)C(=O)NC(C)(C)C(=O)N[C@H](C(=O)N[C@@H](CCCNC(=N)N)C(=O)N[C@@H](CCC(N)=O)C(=O)N[C@@H](CCCNC(=N)N)C(=O)N[C@@H](Cc1ccccc1C)C(N)=O)[C@@H](C)O, also called compound No. 261) [Ac-[Arg20, D-Tyr21, D-Pro24, Pya(4)26, Cha27, Aib28,31, Lys30, Phe(2Me)36]-PYY(20-36)]	0.81 EC50 compound/EC50 PYY(3-36)	0.54 IC50 compound/IC50 PYY(3-36)
Ac-S[dP]RH[Cha][tBuAla]NK[Aib]TRQR[Phe(2-Me)]-NH2 (SMILES CC(=O)N[C@@H](CO)C(=O)N1CCC[C@@H]1C(=O)N[C@@H](CCCNC(=N)N)C(=O)N[C@@H](Cc1c[nH]cn1)C(=O)N[C@@H](CC1CCCCC1)C(=O)N[C@@H](CC(C)(C)C)C(=O)N[C@@H](CC(N)=O)C(=O)N[C@@H](CCCCN)C(=O)NC(C)(C)C(=O)N[C@H](C(=O)N[C@@H](CCCNC(=N)N)C(=O)N[C@@H](CCC(N)=O)C(=O)N[C@@H](CCCNC(=N)N)C(=O)N[C@@H](Cc1ccccc1C)C(N)=O)[C@@H](C)O, also called compound No. 255) [Ac-[D-Pro24, Cha27, Leu(Me)28, Lys30, Aib31, Phe(2Me)36]-PYY(23-36)]	0.86 EC50 compound/EC50 PYY(3-36)	0.8 IC50 compound/IC50 PYY(3-36)
Ac-E[dP]RH[Cha][Cha]NK[Aib]TRQR[Phe(3-Me)]-NH2 (SMILES CC(=O)N[C@@H](CCC(=O)O)C(=O)N1CCC[C@@H]1C(=O)N[C@@H](CCCNC(=N)N)C(=O)N[C@@H](Cc1c[nH]cn1)C(=O)N[C@@H](CC1CCCCC1)C(=O)N[C@@H](CC1CCCCC1)C(=O)N[C@@H](CC(N)=O)C(=O)N[C@@H](CCCCN)C(=O)NC(C)(C)C(=O)N[C@H](C(=O)N[C@@H](CCCNC(=N)N)C(=O)N[C@@H](CCC(N)=O)C(=O)N[C@@H](CCCNC(=N)N)C(=O)N[C@@H](Cc1cccc(C)c1)C(N)=O)[C@@H](C)O, also called compound No. 259) [Ac-[Glu23, D-Pro24, Cha27,28, Lys30, Aib31, Phe(3Me)36]-PYY(23-36)]	0.93 EC50 compound/EC50 PYY(3-36)	1.1 IC50 compound/IC50 PYY(3-36)
{((1S)-5-amino-1-carboxypentyl)carbamoyl}-S[dP]RH[Cha][Cha]NL[Aib]TRQR[Cha]-NH2 (calculated mass 1980.2 fits the name; also called compound No. 323) [[(1S)-5-Amino-1-carboxypentyl]carbamoyl-[D-Pro24, Cha27,28,36, Aib31]-PYY(23-36)]	0.95 EC50 compound/EC50 PYY(3-36)	1.3 IC50 compound/IC50 PYY(3-36)

Continued, values first:

GBA EC50 Ratio ([35S]GTPγS binding) (human Y2 receptor [1])	IC50 Ratio (human Y2 receptor [2])	Binder
33 EC50 compound/EC50 PYY(3-36)	68 IC50 compound/IC50 PYY(3-36)	[4Amb]RAYINLI[Abu]RQRY-NH2 (N-terminus assumed; SMILES CC[C@H](NC(=O)[C@@H](NC(=O)[C@H](CC(C)C)NC(=O)[C@H](CC(N)=O)NC(=O)[C@@H](NC(=O)[C@H](Cc1ccc(O)cc1)NC(=O)[C@H](C)NC(=O)[C@H](CCCNC(=N)N)NC(=O)c1ccc(CN)cc1)[C@@H](C)CC)[C@@H](C)CC)C(=O)N[C@@H](CCCNC(=N)N)C(=O)N[C@@H](CCC(N)=O)C(=O)N[C@@H](CCCNC(=N)N)C(=O)N[C@@H](Cc1ccc(O)cc1)C(N)=O, also called compound No. 354) [4-Aminomethylbenzoyl-[Ala26, ILe28,31, Abu32]-PYY(25-36)]
2.5 EC50 compound/EC50 PYY(3-36)	0.89 IC50 compound/IC50 PYY(3-36)	X10-E[dP]RH[Cha][Cha]NK[Aib]TRQR[Cha]-NH2 (SMILES C[C@@H](O)[C@H](NC(=O)C(C)(C)NC(=O)[C@H](CCCCN)NC(=O)[C@H](CC(N)=O)NC(=O)[C@H](CC1CCCCC1)NC(=O)[C@H](CC1CCCCC1)NC(=O)[C@H](Cc1c[nH]cn1)NC(=O)[C@H](CCCNC(=N)N)NC(=O)[C@H]1CCCN1C(=O)[C@H](CCC(=O)O)NC(=O)NC1CCOCC1)C(=O)N[C@@H](CCCNC(=N)N)C(=O)N[C@@H](CCC(N)=O)C(=O)N[C@@H](CCCNC(=N)N)C(=O)N[C@@H](CC1CCCCC1)C(N)=O, also called compound No. 230) [Tetrahydro-2H-pyran-4-yl-carbamoyl-[Glu23, D-Pro24, Cha27,28,36, Lys30, Aib31]-PYY(23-36)]
